{"source": "patent US20250352611A1", "about": "“METHODS FOR TREATING CATARACTS USING POLYPEPTIDES” (REJUKON BIOPHARM INC., priority 2022, published 2025)", "key": {"γD-crystallin": {"molecular_target": "T1, γD-crystallin (Homo sapiens, UniProt P07320)", "T1 construct": "Wild-type human full-length γD-crystallin gene were inserted into pET14b vectors; made in house; host or cells: E. coli BL21 (DE3)", "T1 sequence (P07320 1-174)": "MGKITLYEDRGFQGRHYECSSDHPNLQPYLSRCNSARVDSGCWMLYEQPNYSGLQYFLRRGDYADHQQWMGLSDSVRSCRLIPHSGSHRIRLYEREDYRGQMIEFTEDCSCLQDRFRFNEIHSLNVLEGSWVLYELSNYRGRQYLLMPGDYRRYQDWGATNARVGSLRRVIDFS", "experiment": "1H-15N HSQC NMR of γD-crystallin with peptide", "format": "binding", "design": "interaction with γD-crystallin from chemical shift difference (CSD): dose or concentration left out as unconfirmed", "description": "To evaluate whether a protein undergoes small or significant structural changes before and after adding polypeptides, ^1H-^15N HSQC spectroscopy is a useful tool and can be used as a “fingerprint” of the three-dimensional structure. […] Wild-type human full-length γD-crystallin gene were inserted into pET14b vectors. E. coli BL21 (DE3) cells were transformed with these vectors. For protein production, cells were grown at 37° C. to an absorbance at 600 nm of 0.6 and induced by the addition of 0.5 mM IPTG at 37° C. for 4 h. For the N15 labeling of the protein, the transformed E. coli BL21(DE3) cells were cultured and induced in M9 medium with NH4Cl as the only nitrogen source. […] Using final 300 uM human γD-crystallin at 25° C., the two-dimensional [^1H-^15N] heteronuclear single quantum coherence (HSQC) spectra were recorded to determine the domain interactions at the residue-specific level.\nChemical shift difference (CSD) was measured for γD-crystallin alone or with Champ-E(RJK001). […]\nHSQC spectrums were acquired and analysis with ccpNMR, amide ^1H-^15N combined chemical shift differences were calculated using the equation Δδ=[(0.125ΔδN)^2+ΔδH^2]^1/2. […]\nThe N15 labeled protein was mix with the unlabeled peptide with the ratio of 1:0, 1:2. […] Amide ^1H-^15N combined chemical shift differences were calculated using the equation Δδ) [(0.125ΔδN)^2+ΔδH^2]. Intensity changes were calculated by I/I0. […]"}, "[1]": {"system": "crystallin protein aggregates from human cataract patients", "experiment": "Re-dissolution of crystallin aggregates from patients with different degrees of cataract (ThT fluorescence)", "settings": "LOCS II grades e.g. C1N2P0", "excerpt": "DM: diabetes mellitus. lens opacity classification: C: cortex; N: nucleus; P: the posterior lens capsule.\nHuman lenses used in this study were obtained from unidentified patients undergoing extracapsular cataract surgery. The material had been classified as non-human discarded material. Preoperative clinical exam was used to classify the cataract as mixed cortical and nuclear using LOCS II four-point grading system. LOCS II four-point grading system is also commonly used in clinical settings. (Chylack LT Jr, Leske MC, McCarthy D, Khu P, Kashiwagi T, Sperduto R. Lens opacities classification system II (LOCS II). Arch Ophthalmol. 1989 July; 107(7):991-7. doi: 10.1001/archopht.1989.01070020053028. PMID: 2751471). We tested the crystallin concentrates of patients with different degrees of cataract one by one. […]"}}, "data": [{"sequence": "TEPQEESEEEVEEPEERQQTPEVVPDDSGTFYDQTVSNDLE [RJK001, polypeptide with hydrophilic and hydrophobic segment, expressed in E. coli]", "values": [{"measurement": "1H-15N HSQC spectra of γD-crystallin prior to and after peptide incubation", "setting": "γD-crystallin; 300 uM 15N γD-crystallin, molar ratio 1:2, 25° C.", "result": "significant chemical shifts"}, {"measurement": "interaction with γD-crystallin from chemical shift difference (CSD)", "setting": "γD-crystallin; molar ratio γD-crystallin:RJK001 1:2", "result": "interacted with the full-length wildtype γD-crystallin protein"}, {"measurement": "depolymerization effect on crystallin concentrates of patients with different degrees of cataract", "setting": "[1]", "result": "good depolymerization effects"}]}]}
